According to patent US20110098217A1 (INDIANA UNIVERSITY RESEARCH AND TECHNOLOGY, published 2011):
Like-named read-outs stand apart in the source and are kept apart here. Blank lines part the entries; values can stand above or below the binder they belong to. Bridge positions count the residues as written; N and C are the ends. Square brackets hold non-standard residues; d marks the D form. Ends that are not written are not given here. PhLac = O=C(O)[C@@H](O)Cc1ccccc1

Key:
human GLP-1 receptor [1] = molecular target: T1, human GLP-1 receptor (human, UniProt P43220 24-463); test: cell-based or functional assay
human glucagon receptor [2] = molecular target: T2, human glucagon receptor (human, UniProt P47871 26-477); test: cell-based or functional assay
human GLP-1 receptor [3] = molecular target: T1, human GLP-1 receptor; test: cell-based or functional assay; remark: listed apart in the source
human glucagon receptor [4] = molecular target: T2, human glucagon receptor; test: cell-based or functional assay; remark: listed apart in the source
human GLP-1 receptor [5] = molecular target: T1, human GLP-1 receptor; test: cell-based or functional assay; remark: listed apart in the source
human glucagon receptor [6] = molecular target: T2, human glucagon receptor; test: cell-based or functional assay; remark: listed apart in the source
human glucagon receptor [7] = molecular target: T2, human glucagon receptor; test: cell-based or functional assay; remark: listed apart in the source
human glucagon receptor [8] = molecular target: T2, human glucagon receptor; test: SPA competition vs 125I-glucagon, receptor membranes
human GLP-1 receptor [9] = molecular target: T1, human GLP-1 receptor; test: cell-based or functional assay; remark: listed apart in the source
human glucagon receptor [10] = molecular target: T2, human glucagon receptor; test: cell-based or functional assay; remark: listed apart in the source

T2 sequence (P47871 26-477): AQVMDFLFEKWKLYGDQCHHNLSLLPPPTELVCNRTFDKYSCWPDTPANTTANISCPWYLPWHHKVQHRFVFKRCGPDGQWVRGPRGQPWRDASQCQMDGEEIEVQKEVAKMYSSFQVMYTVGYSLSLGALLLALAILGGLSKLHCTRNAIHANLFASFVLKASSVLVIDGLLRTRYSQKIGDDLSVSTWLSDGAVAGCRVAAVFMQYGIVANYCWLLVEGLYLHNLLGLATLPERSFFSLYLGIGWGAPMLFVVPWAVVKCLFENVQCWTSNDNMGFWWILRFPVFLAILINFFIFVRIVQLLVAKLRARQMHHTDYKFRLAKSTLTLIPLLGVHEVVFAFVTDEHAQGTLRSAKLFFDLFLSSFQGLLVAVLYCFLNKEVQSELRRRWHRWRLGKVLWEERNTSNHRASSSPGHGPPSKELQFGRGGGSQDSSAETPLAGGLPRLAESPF

B1: [H1A2E3-O-PLA6, D9, E16K20(Lactam), D28] G(1-29) (peptide)
peptide: HAEGT[PhLac]TSDYSKYLDERRAKDFVQWLMDT-NH2
modifications: lactam 16-20; also: PLA6 linked to Thr5 by an ester bond (depsipeptide)
GLP-1 agonism EC50 (human GLP-1 receptor [1]): 6.2 nM
Glucagon antagonism IC50 (inhibit 0.8 nM glucagon) (human glucagon receptor [2]): 9.65 nM

B2: [PLA6, E16, E24K28(lactam)]G(6-29) (peptide)
peptide: [PhLac]TSDYSKYLDERRAQDFVEWLMKT-NH2
modifications: lactam 19-23; not fully specified
GLP-1 agonism EC50 (human GLP-1 receptor [3]): 289 nM
Glucagon antagonism IC50 (inhibit 0.2-0.8 nM glucagon) (human glucagon receptor [4]): 22.4 nM
GLP-1 EC50 (human GLP-1 receptor [5]): 289 nM
Glucagon IC50 (human glucagon receptor [6]): 22 nM

B5: [PLA6, E16K20(lactam), E21, D28] G(6-29) (peptide)
peptide: [PhLac]TSDYSKYLDERRAKEFVQWLMDT-NH2
modifications: lactam 11-15; N-terminus assumed
SMILES: CSCC[C@H](NC(=O)[C@H](CC(C)C)NC(=O)[C@H](Cc1c[nH]c2ccccc12)NC(=O)[C@H](CCC(N)=O)NC(=O)[C@@H](NC(=O)[C@H](Cc1ccccc1)NC(=O)[C@H](CCC(=O)O)NC(=O)[C@@H]1CCCCNC(=O)CC[C@H](NC(=O)[C@H](CC(=O)O)NC(=O)[C@H](CC(C)C)NC(=O)[C@H](Cc2ccc(O)cc2)NC(=O)[C@H](CCCCN)NC(=O)[C@H](CO)NC(=O)[C@H](Cc2ccc(O)cc2)NC(=O)[C@H](CC(=O)O)NC(=O)[C@H](CO)NC(=O)[C@@H](NC(=O)[C@@H](O)Cc2ccccc2)[C@@H](C)O)C(=O)N[C@@H](CCCNC(=N)N)C(=O)N[C@@H](CCCNC(=N)N)C(=O)N[C@@H](C)C(=O)N1)C(C)C)C(=O)N[C@@H](CC(=O)O)C(=O)N[C@H](C(N)=O)[C@@H](C)O
GLP-1 agonism EC50 (human GLP-1 receptor [3]): 11.1 nM
Glucagon antagonism IC50 (inhibit 0.2-0.8 nM glucagon) (human glucagon receptor [4]): 8.6 nM

B6: [A2E3-O-PLA6, D9, E16K20(Lactam), D28] G(2-29) (peptide)
peptide: AEGT[PhLac]TSDYSKYLDERRAKDFVQWLMDT-NH2
modifications: lactam 15-19; also: PLA6 linked to Thr5 by an ester bond (depsipeptide)
GLP-1 agonism EC50 (human GLP-1 receptor [9]): 18 nM
Glucagon antagonism IC50 (inhibit 0.8 nM glucagon) (human glucagon receptor [10]): 21.8 nM
GLP-1 agonism EC50 (human GLP-1 receptor [1]): 14 nM
Glucagon antagonism IC50 (inhibit 0.8 nM glucagon) (human glucagon receptor [2]): 4.68 nM

B7: [PLA6, E16, K20E24(lactam), D28]G(6-29) (peptide)
peptide: [PhLac]TSDYSKYLDERRAKDFVEWLMDT-NH2
modifications: lactam 15-19; N-terminus assumed
SMILES: CSCC[C@H](NC(=O)[C@H](CC(C)C)NC(=O)[C@H](Cc1c[nH]c2ccccc12)NC(=O)[C@@H]1CCC(=O)NCCCC[C@H](NC(=O)[C@H](C)NC(=O)[C@H](CCCNC(=N)N)NC(=O)[C@H](CCCNC(=N)N)NC(=O)[C@H](CCC(=O)O)NC(=O)[C@H](CC(=O)O)NC(=O)[C@H](CC(C)C)NC(=O)[C@H](Cc2ccc(O)cc2)NC(=O)[C@H](CCCCN)NC(=O)[C@H](CO)NC(=O)[C@H](Cc2ccc(O)cc2)NC(=O)[C@H](CC(=O)O)NC(=O)[C@H](CO)NC(=O)[C@@H](NC(=O)[C@@H](O)Cc2ccccc2)[C@@H](C)O)C(=O)N[C@@H](CC(=O)O)C(=O)N[C@@H](Cc2ccccc2)C(=O)N[C@@H](C(C)C)C(=O)N1)C(=O)N[C@@H](CC(=O)O)C(=O)N[C@H](C(N)=O)[C@@H](C)O
GLP-1 agonism EC50 (human GLP-1 receptor [3]): 240 nM
Glucagon antagonism IC50 (inhibit 0.2-0.8 nM glucagon) (human glucagon receptor [4]): 74.4 nM
GLP-1 EC50 (human GLP-1 receptor [5]): 239 nM
Glucagon IC50 (human glucagon receptor [6]): 74 nM

The remaining lines, values ahead:

cAMP Induction EC50 (human glucagon receptor [7]): 81 nM
IC50 (human glucagon receptor [8]): 12.6 nM
B3: [desHis^1, Glu^9, Phe^25, Leu^27]Glucagon-NH2 (peptide)
peptide: SQGTFTSEYSKYLDSRRAQDFVQFLLNT-NH2

cAMP Induction EC50 (human glucagon receptor [7]): 318 nM
cAMP Inhibition IC50 (human glucagon receptor [7]): 102 nM
IC50 (human glucagon receptor [8]): 36.9 nM
B4: [desHis^1, Leu^4, Glu^9] Glucagon-NH2 (peptide)
peptide: SQLTFTSEYSKYLDSRRAQDFVQWLMNT-NH2
notes: also called Cmpd

GLP-1 agonism EC50 (human GLP-1 receptor [9]): 112 nM
Glucagon antagonism IC50 (inhibit 0.8 nM glucagon) (human glucagon receptor [10]): 20.9 nM
GLP-1 agonism EC50 (human GLP-1 receptor [1]): 45.7 nM
Glucagon antagonism IC50 (inhibit 0.8 nM glucagon) (human glucagon receptor [2]): 3.14 nM
B8: [S2Q3-O-PLA6, D9, E16K20(Lactam), D28] G(2-29) (peptide)
peptide: SQGT[PhLac]TSDYSKYLDERRAKDFVQWLMDT-NH2
modifications: lactam 15-19; also: ester (depsipeptide) bond Thr5-PLA6
